From a protein production outcome set (Wang et al. 2014)

Assay: label from the status in PepcDB records

## MLSTNKFAVLAFATFVAFQAPAHAEDAVVAKVGNLEIHQSELDLAVANLDPQLAQLPDDQKKVAALSAAIDVKLLAAGATTEKLEQTDEFKKRMQYLTDRELHNAYFKKHVVDTVTPDEIKARYDKEVAALPKQEEVHARHILVKTEDEAKDIIKQLDAGKDFAELAKEKSTDPNKSEGGDLGYFSRGRMVKEFEDAAFALEKGAYSKTPVKTDFGYHVIKVEDKRDAPPPPFDQVQDQVRQLVMRDKYLALLNQAKSSAKIEISDETLRKGYDEANKQPEPGSEPPQPAPKQ
  protein production: failed

## MPAIQSELDVNGEDFARNREAMLAAVAGFRELEQKVLDKAAEARPKFEKRGQLLPRERLALLLDPGAPFLELSSLAGYKLHDDKDGTQAGGGIIAGIGYIAGVRCLVSASNSAIKGGTISPTGLKKTLRLQQIAMENKLPVVTLTESGGANLNYAAEIFVEGARGFANQARISAMGIPQVTVVHGSSTAGGAYQPGLSDYVVVVRGKAKMFLAGPPLLKAATGEIASDEELGGAELHAQVAGTAEYLAENDADGVRLAREIVGMLPWNAQLPARPARSWREPLYPVEELLGVVPADPKKPYDVREIVARIADGSEFLDFKNEFDGQTVCGHLRIEGHACGLIGNNGPITPQGAAKAAQFIQLCEQSNTPLLFLHNTTGFMVGTESERQGVIKHGSKMIQAVANARVPKLTLVVGGSYGAGNYAMCGRGLDPRFIFAWPNSRTAVMGGAQAGKVLRIVTEEKHAKEGKEADPKMLEMLETVTAQKLDSQSTALYGTASLWDDGLVDPRDSRRLLGYLLDICAEAEARPLKGNSFGVAR
  protein production: not failed

## MKTIGLLGGMSWESTIPYYRLINEGVKARLGGLHSASLVLHSVDFHDIEACQSAGDWDRAGEILAEAAVGLQQAGAEGIVLCTNTMHKVADAIAARCQVPFLHIADATGRAIAAKGQRRVALLGTRYTMEQTFYRGRLQEQFAIETLIPEADDRAQINQIIFDELCLGTFSEASRDYYLQTIAALAEQGAEGVIFGCTEIGLLVPAELSPLPVFDTAAIHAEDAVNFMLSAGPTPAA
  protein production: failed

## MTIKGRAFPEGFLWGGAVAAHQLEGGYKEGGKGLSTADIMTLGTNERPREITDGVVAGKYYPNHQAIDFYHRYPEDIELFAEMGFKCFRTSIAWTRIFPNGDESEPNEAGLQFYDDLFDECLKNGIQPVVTLAHFEMPYHLVKQYGGWRNRKLIQFYLNFAKVCFERYRDKVTYWMTFNEINNQTNFESDGAMLTDSGIIHQPGENRERWMYQAAHYELVASAAAVQLGHQINPDFQIGCMIAMCPIYPLTAAPADVLFAQRAMQTRFYFADVHCNGTYPQWLRNRFESEHFNLDITAEDLKILQAGTVDYIGFSYYMSFTVKDTGKLAYNEEHDLVKNPYVKASDWGWQVDPVGLRYAMNWFTDRYHLPLFIVENGLGAIDKKTADNQIHDDYRIDYLTDHLRQIKLAVLEDGVDLIGYTPWGCIDLVAASTGQMSKRYGFIYVDENDDGSGSLKRYKKDSFTWFQHVIATNGAEIE
  protein production: not failed

## MGLFDFLKKGLQKTKETFFGRVVKLLKGKKLDDETREELEELLIQADVGVETTEYILERLEEKDGDALESLKEIILEILNFDTKLNVPPEPPFVIMVVGVNGTGKTTSCGKLAKMFVDEGKSVVLAAADTFRAAAIEQLKIWGERVGATVISHSEGADPAAVAFDAVAHALARNKDVVIIDTAGRLHTKKNLMEELRKVHRVVKKKIPDAPHETLLVIDATTGQNGLVQAKIFKEAVNVTGIILTKLDGTAKGGITLAIARELGIPIKFIGVGEKAEDLRPFDPEAFVEVLLSE
  protein production: not failed

## MLTFIVVNYNGEKYLKECLNSIINQTYRKLRVLVIDNGSTDGSRDILRNFEDYYSRFEVIRNEENLGFAKAANQGIEMANTKFVALVNNDAFLERNWAEEMLKAADDLRAGIFASKILFEDGRINSAGHAIHRGLAVMERGFLEKDEGQFDEPCYVAGACAAAAMYRRSLFEDVGLFDEDYFMYNEDVDLSLRALIRGWKILYVPTAIAYHLHSASTGFLSDFSVYYNSRNWVWSVVKNVPRDLLLREFPYFILRNFSSMLFFCLRGNFAILKSKIDAIRELRKFLEKRREVQQKVRFKAVEDYIEGLGFGKALKVARLAGVLR
  protein production: failed

## MMHISVGATEMSWLSSLKSVFSPSQEVKEDDVQTILQSYSLENSSFVLKDRITQINVEGRILQLTIKTFPEEADHLQQIHDELADALQKAGIQELNLHVIQQKTAPRTEPKSSSSTTSSSSHLPPVVDASASPTPDPNNPPIQKKAPIQSEVPAHPRIKNVILVSSGKGGVGKSTTTVNLALALQKQGLKVGVLDADIYGPSIPTMLGNAGRTPKIENENFVPLDAYGLAVLSIGHLTGDNNTPVAWRGPKATGALMQLFNQTLWPDLDVLVIDMPPGTGDIQLTLAQRIPVTGALIVTTPQNVALLDASKGIELFNRVGIPVVGVIENMSTHICSNCGFEEQIFGVGGGDKLSEQYDIPLLGRLPLNAQIRENADKGQPSVIAQDTAAESYQMIAQALWTRVEQLPQRARDDKRIFLEHHHHHH
  protein production: failed

## MKILAISGSARRNSTNTAMLQAVRAVAPGEIEISIFDGVGRLPVFSPDLEGESLPEVVRNLIDVIAQSDGVIIASPEYVRSIPGGLKNAIDWLVSGDDIVHKPIALLHASHRGDDMLAGLRTVLATITDRFAGDIFLRLPLMKLEPADVLKAVEAAENRSRVQAYLQAFSAYCMADSKTA
  protein production: failed

## VRIVLVGSGNLATQTALALSEAASPPVQVWSRNAEHAERLASMLPGATATDRTEELLCDAELYLLAVSDHALESVAATLPPTSGIWAHTAGSMPMDTLRPYHAQIGVFYPLQTFSRERRVDYSSIPIYIEGNDESVVRLLESVARLISRNVLRCT
  protein production: failed

## MGHHHHHHSHGLCYDLCRFGAVVAEDGYYVDEKKCEGCAFCFNVCPERAIEMENVKTGDLYVSKTEWGYFVHARLKPGEENTGRLVTEVKNRAKEIAEESNAEFLIVDSAPGVGCPVMASLTGVDAAIIVTEPTVSGLSDMLRILELCEHFRIRPFVVVNKFDLNVNIASEIESYCSENGVEFAGRVPFDKAIPEQIANLNFPFSGKAADKMVEIWKKLRE
  protein production: failed

## MINHKIFPTADAVVKSLADDMLAYSQQGQPVHISLSGGSTPKMLFKLLASQPYANDIQWKNLHFWWGDERCVAPDDAESNYGEANALLFSKINMPAQNIHRILGENEPQAEAERFAQAMAHVIPTENGTPVFDWILLGVGADGHTASLFPGQTDYADANLSVVASHPESGQLRVSKTAKVLQAAKRISYLVLGAGKAEIVEQIHTTPAEQLPYPAAKIHSTSGVTEWYLDSDAAAKIA
  protein production: not failed

## YWGPLDVGEAKSLPGMEDPKLVYIPSIAPSNMVLYRGDKYSELDGKILVGALKLTHINVVGINDGKLTESQRLLEKLGERIRDITISPDGYIYFSTDSGKIFRLTEQ
  protein production: failed

## MELGSVATFSLYPDLYARFRPSYPEELYDWLLPLCPGRQRAWDCATGSGQTAVRLGESFSRVDATDISSSQLSAAEPHTQVYYRECPAEVTPFDDDCFDLICVSQALHWFHLPSFWPEMQRVLKPGGIFAAWGYHHCVVSPEVDRACSVLWSIIEPFWSSRCQLLWDDFRGSGCPLPLLKAPSFTISSDWALDHFLGFLNTTSASKLCKQALGESILDDACQRITRAWGPRNQVRRVDLPLHLMVARKDDAGGYAG
  protein production: failed

## MRRSGAASRPASRGARTAYIGAMSRSTPPATTRIVCIRHGESTFNAHHEATGRDPGHIDARLSERGHAQVAAARAALRAIPFELVVTSPLTRALQTTAGIFSDHPARPDVLVEVLHRECQESSCDIGRAASVLAQEFPAFKVGHLPETWWYADGEAGPDGWHVEPRTLFDQRVSGFRDWLRARPERTIGVVGHCTFFYHLTGRWLANCEALDVDLTAEPRPRAYG
  protein production: failed

## MILEFKSEKKMINFSKSFFYPLPIGKIFVLSGDMGSGKTSFLKGLALNLGISYFTSPTYNIVNVYDFINFKFYHIDLYRVSSLEEFELVGGLEILMDLDSIIAIEWPQIALSIVPKDRLFSLTFKIVGSGRVVELNGLEHHHHHH
  protein production: not failed

## MPTLIVLIGPTGVGKTELSLRLAENFHTSIVSADSRQLYAELKIGTAAPTPDQLKRVPHYLVGTLHLTDYYSAAQYEQEAMEILHQLFTEHEVVVLTGGSMMYVDAICKGIDDIPTVDAETRQVMLQKYEEEGLEQLCAELRLLDPDYYRIVDLKNPKRVIHALEICYMTGKTYTSFRTQQKKERPFRILKIGLTRDREELYDRINRRVDQMMEEGLLDEVRSVLSYRHLNSLNTVGYKELFKYLDGEWELPFAIEKIKQNSRIYSRKQMTWFKRDEEIRWFHPEQETEILEYLRLQNLTHLPSLDTFLEHHHHHH
  protein production: not failed

## AEGQTVYWHAWGGDPKINAFIAWVGEQARARHGFMLEQVKLADTTEAVARVLAEKQAGRTEGGAVDLIWINGENFAAMKAQGLLSEPFAESLPNWTHVDVAGKPAVVTDFTEPTGGLESPWAMAQLVFEHDSARLPAPPRTLAQLLAWIEVNPGRFTFPQPPDYLGTTFLKQVLYGVIEDPGLLQKPVDPATYETVTAPLWTWLDRAEPYLWREGRAYPANEPALGQLFADGEIAISFAFNPGRASAAIAAGELPETVRTFTLEGGTIGNASFVAIPFNAAHAAGAKVIANLLLDPEVQARAQDPAVLGFQTVLDVAALPEPDRARFAAL
  protein production: failed

## MRLFSIPPPTLLAGFLAVLIGYASSAAIIWQAAIVAGATTAQISGWMTALGLAMGVSTLTLTLWYRVPVLTAWSTPGAALLVTGLQGLTLNEAIGVFIVTNALIVLCGITGLFARLMRIIPHSLAAAMLAGILLRFGLQAFASLDGQFTLCGSMLLVWLATKAVAPRYAVIAAMIIGIVIVIAQGDVVTTDVVFKPVLPTYITPDFSFAHSLSVALPLFLVTMASQNAPGIAAMKAAGYSAPVSPLIVFTGLLALVFSPFGVYSVGIAAITAAICQSPEAHPDKDQRWLAAAVAGIFYLLAGLFGSAITGMMAALPVSWIQMLAGLALLSTIGGSLYQALHNERERDAAVVAFLVTASGLTLVGIGSAFWGLIAGGVCYVVLNLIADRNRY
  protein production: failed

## MPRWLPRAMVLALALIAAFQLGSWAFHQLTGLLINVLIAFFLALAIEPAVSWMAGRGMRRGFATFLVFLAVLIAAAGFVTLLGSMLAGQIVKMVEEFPDYLDSVINWVNGHFHTELRRVDIQEGLLRSDWLRNYVQNSATGVLDVSAQVLGGLFQLLTVLLFSFYFAADGPRLRRGLCSVLPPARQAEVLRAWEIAVDKTGGYLYSRGLMALVSGVAHYILLEILEVPYAPALAVWVGLVSQFIPTIGTYLAGALPMLIAFTVNPWYALWVLVFVVIYQQFENYVLQPKLTSKTVDIHPAVAFGSVIAGTALLGAVGALIAIPAVATLQAFLGAYVKRYDVTDDPRVHGRRGRRSVSGTSTRLRKLWTRRPEPGLEGPERTEGPERTEGGEGTDGTRDGGSS
  protein production: failed

## MGQFSILGFIALGGAIGACSRYLVSEFCVLLFGRGFPYGTLTVNVVGSFIMGLLIAAFENEILATEPWRQVIGLGFLGALTTFSTFSMDNVLLMQQGAFFKMGLNILLNVVLSISAAWIGFQLLMRS
  protein production: failed

## MLKYSNHMAFKDLREYIEFMKKKGKLIEVDDEVSVDLEIAEITRKATYAHLPPLLFKRVKNYENWKIVSNIFYSIESLYEIFGTNKLESISEGFLSNLSNMPITFFDKIKSLREILGLGKVMPKAKSPSFKEEKNLDLTKIPAIKTWPKDAGRYLTFSITITKDPETDVHNLSVYRVQILNEKEAIIHWQAFKRGALTAKKYLEKGISKIPIAVVTGVDPAIAFTAASPVPHGIDKYMFAGILRGEGIDVAELDNQLLVPSHSEVVLTGYVDLNDMRLEGPFGDHMGYYTPADYYPVFKLERVYIREDPIFHVTSVGKPPLEDAWIGKAVERIFLPFAKMLVPELIDMNLPEYGLFTGIGIFSIKKYYPGQAKRVMMALWGTGQLSLLKIIIVVDQDIDVHDINQVIYAIAANVDPKRDVWVIENALTDSLDPSVPFPPLGSKLGIDATRKFKEEMGKEWPEEVRSDEVVAKKADQILNKIIKRYQTSLEHHHHHH
  protein production: failed
